From patent publication US20230071609A1 (Genentech, published 2023) come the findings set out here.

Assay [1] concerns the target T1, untagged APOL1-G0, KIK variant, transiently expressed (COS cells) (human, UniProt O14791 29-398).
T1 construct: Origene SC109941 clone with E150K, M228I, R255K
T1 chain: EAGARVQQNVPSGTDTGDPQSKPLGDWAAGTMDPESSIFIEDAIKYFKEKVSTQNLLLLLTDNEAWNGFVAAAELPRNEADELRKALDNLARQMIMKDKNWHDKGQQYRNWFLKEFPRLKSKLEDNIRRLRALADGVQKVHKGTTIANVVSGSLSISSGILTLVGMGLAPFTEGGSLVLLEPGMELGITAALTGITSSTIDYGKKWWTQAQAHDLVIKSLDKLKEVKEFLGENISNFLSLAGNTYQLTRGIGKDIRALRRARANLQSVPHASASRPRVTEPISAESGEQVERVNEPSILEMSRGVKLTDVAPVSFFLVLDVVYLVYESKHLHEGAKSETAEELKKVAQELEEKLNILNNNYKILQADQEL
Kind of assay: immunofluorescence on transfected COS cells, 1 µg/ml; grade.

The next assay concerns the target T2, APOL6-myc-FLAG (human, UniProt Q9BWW8 1-343).
T2 construct: whole, on cells; In fixed, permeabilized transfected COS cells; untagged APOL6 in the western blots; not shown: C-terminal myc-FLAG tag
T2 sequence (looked up): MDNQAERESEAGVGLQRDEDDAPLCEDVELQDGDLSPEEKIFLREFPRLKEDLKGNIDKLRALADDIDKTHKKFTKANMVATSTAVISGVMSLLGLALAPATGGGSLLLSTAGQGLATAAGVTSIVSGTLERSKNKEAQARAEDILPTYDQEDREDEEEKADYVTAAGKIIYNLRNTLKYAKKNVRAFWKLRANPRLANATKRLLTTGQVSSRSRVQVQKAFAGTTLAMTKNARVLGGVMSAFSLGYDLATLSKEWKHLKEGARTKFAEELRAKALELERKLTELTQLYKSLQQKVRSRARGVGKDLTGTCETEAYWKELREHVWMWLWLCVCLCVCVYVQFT
Kind of assay: immunofluorescence on transfected COS cells; grade. From the text:
COS cells were transfected as in FIG. 31A except APOL1 and APOL2 were also C-terminally myc-FLAG tagged. Overlays of APOL with epitope tags: either mouse anti-FLAG-M2 or mouse anti-myc 9E10 for anti-APOL1 rabmabs; or rabbit anti-Myc 71D10 in conjunction with mouse anti-APOL1. Signals indicate the two antibodies overlap (i.e. anti-APOL1 cross-reacts with that APOL); signals (epitope tag only) indicate no cross-reactivity. Alexa647 anti-rabbit or mouse were used for the tags to rule out the possibility that any colocalization was a bleed-through artifact. Sparsely transfected areas were imaged to permit evaluation of background staining in adjacent untransfected cells—DAPI nuclear staining identifies both untransfected and transfected cell nuclei. […] Note that none of the antibodies cross-reacted with the more distantly related APOL6. *, APOL2-myc-FLAG is presumably misfolded, since it is not as cross-reactive as untagged APOL2 (compare FIG. 31A) with several antibodies. Commercial antibodies are Sigma HPA018885, Epitomics EPR2907 (2) (Epito) and Proteintech 11486-2-AP (Ptech).
Cells were plated on LabTekII (Nalge Nunc 154534) slides and fixed at 70-100% confluency. For mAb screening, cells were fixed/permeabilized for 5 min in −20° C. methanol (EMD MX0485-6). For all other experiments, cells were fixed in 3% paraformaldehyde in PBS (EMS 15710) for 20 mins at room temperature, quenched with 50 mM NH₄Cl in PBS for 10 mins, then permeabilized with 0.1% TX-100 in PBS for 4 mins or for 1h in saponin buffer [0.4% saponin (Sigma S7900), 1% bovine serum albumin (BSA; Sigma A2153), 2% fetal bovine serum (Seradigm) in PBS]. First antibodies (stored sterile at 4° C.) were applied for 1 h at room temperature, at 1 μg/ml for screening on transfected cells or at subsequently optimized concentrations for detecting endogenous APOL1. After 3×10 min washes in PBS (for Methanol or TX-100 protocols) or saponin buffer (saponin protocol), secondary antibodies were applied at 1.88 μg/ml for 1 h at room temperature, washed 3× and mounted under No. 1.5 coverslips in ProLong Gold with DAPI (4′,6-diamidino-2-phenylindole; Life Technologies P36931).

The target of assay [2] is T3, endogenous human APOL1 (wild-type immortalized podocytes; also JHH-1 cells, kidney and liver tissue) (human, UniProt O14791 28-398).
T3 construct: whole, on cells; Cell or tissue and permeabilization are told under assay; also called podocyte APOL1; endogenous APOL1
T3 sequence (looked up): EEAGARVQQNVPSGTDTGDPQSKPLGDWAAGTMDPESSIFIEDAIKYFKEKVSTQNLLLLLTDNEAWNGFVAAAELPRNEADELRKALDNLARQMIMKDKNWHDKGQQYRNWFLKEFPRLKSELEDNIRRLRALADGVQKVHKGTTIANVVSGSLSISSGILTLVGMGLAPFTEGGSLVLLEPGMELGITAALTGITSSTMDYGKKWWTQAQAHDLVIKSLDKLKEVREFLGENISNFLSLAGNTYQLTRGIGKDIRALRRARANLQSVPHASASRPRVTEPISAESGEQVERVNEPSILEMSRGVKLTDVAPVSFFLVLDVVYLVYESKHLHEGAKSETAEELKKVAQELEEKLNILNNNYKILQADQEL
Kind of assay: summary of the Examples: podocyte flow cytometry. As to the method:
Cells were harvested with 5 mM EDTA in PBS, washed once with growth media and twice with PBS. Approximately 0.5×10⁶/m1 of cells resuspended in PBS were incubated with anti-APOL1 antibodies for 1 h on ice. Following two PBS washes, 2 μg/ml of Alexa488 anti-mouse or anti-rabbit (Invitrogen A11029 and A21206, respectively) was used for 1 h on ice for detection. Cells were washed twice in PBS and resuspended in PBS with 1 μg/ml propidium iodide. Signals were read in a FACSCalibur3 (Becton Dickinson), with the exception of FIG. 8A and FIG. 14, which used a FACSCelesta, and data was analyzed using FlowJo v8.4.5. Mean fluorescence intensities were plotted in PRISM v7 after subtraction of secondary antibody alone background. For low pH experiments, cells were incubated with the antibodies in the presence of PBS pH 7.0 or PBS pH 5.5 for an hour on ice and detected with secondary antibodies at neutral pH.
(Flow cytometry measures light scatter and fluorescence of single cells or particles in a stream.)

The target in assay [3] is T4, circulating APOL1 in normal human serum (human, UniProt O14791 28-398).
T4 construct: mature; Serum of healthy volunteers; lipoprotein-associated; also called serum APOL1; HDL APOL1
T4 sequence (looked up): T3 sequence (looked up)
In words: summary of the Examples: trypanolysis blocking as proxy for serum APOL1. As to the method: The trypanolysis assay used herein to text specificity of antibodies for serum APOL1 is as follows. Trypanosoma brucei brucei were obtained from ATCC and cultured in HMI-9 media containing IMDM (Genentech), heat-inactivated (56° C. for 30 min) FBS (Seradigm IXL9/06807/GEN), 1% serum plus (Sigma 14008C), HMI-9 (Genentech) and 1% hypoxanthine (Genentech). Trypanosome lysis was performed by treating 1×10⁵ Trypanosomes with serial dilutions of NHS or recombinant APOL1 for 16 h in a total of 100 μl. Live cell read out was done by the Alamar Blue assay as per the manufacturer's protocol, (Thermo Fisher, DAL1100). Briefly 10 μl of Alamar Blue was added to each well, incubated at 37° C. for 4 h. Red fluorescence, indicating live trypanosomes, was measured on a SpectraMax® fluorimeter powered by SoftMAX® PRO with excitation at 530 nm and emission 590 nm. For the antibody blocking assay, 1% normal human serum was preincubated with 1-10 μg/ml of anti-APOL1 antibody or media at room temperature for 20 minutes followed by addition of trypanosomes. After 16 h, the Alamar Blue assay was performed as above and background values for media only were subtracted and % blocking calculated by normalizing to no antibody control.
Trypanosoma brucei brucei were obtained under MTA from ATCC and cultured in HMI-9 media containing IMDM (Genentech), heat-inactivated (56° C. for 30 min) FBS (Seradigm IXL9/06807/GEN), 1% serum plus (Sigma 14008C), HMI-9 (Genentech) and 1% hypoxanthine (Genentech). Trypanosome lysis was performed by treating 1×10⁵ Trypanosomes with serial dilutions of NHS or recombinant APOL1 for 16 h in a total of 100 μl. Live cell read out was done by the Alamar Blue assay as per the manufacturer's protocol (30) (Thermo Fisher, DAL1100). Briefly 10 μl of Alamar Blue was added to each well, incubated at 37° C. for 4 h. Red fluorescence, indicating live trypanosomes, was measured on a SpectraMax fluorimeter powered by SoftMAX PRO with excitation at 530 nm and emission 590 nm. For the antibody blocking assay, 1% normal human serum was preincubated with 1-10 μg/ml of anti-APOL1 antibody or media at room temperature for 20 mins followed by addition of trypanosomes.

Assay [4] has as its target T4, circulating APOL1 in normal human serum. In words: cell-based or functional assay.

B1: antibody 4.2C4 (antibody, V domains shown)
VH: QVQLQQSGPELVKPGASVKMSCKASGYTFTDYVISWVKQRTGQGLEWIGEMFPGSGTTYYTEKFRGKATLTADKSSNTAYMQLSSLTSEDSAVYFCARGTTADYWGQGTTLTVSS
VL: ENVLTQSPAIMSASLGEKVTMSCRASSSVNYMYWYQQKSDASPKLWIYYTSNLAPGVPARFSGSGSGNSYSLTISSMEGEDAATYYCQQFTSSPYTFGGGTKLEIKR
notes: Mouse mAb, cloned as murine IgG2a LALAPG
In the case of B1, the binding result in assay [1] was “binds”; with APOL6-myc-FLAG it was “no binding (tested: 1 µg/ml)”.

B2: antibody 3.4G10 (antibody, V domains shown)
VH: DVQLQESGPDLVKPSQSLSLTCTVTGYSITSGESWHWIRHFPGNELEWMGFIHYSGSANYNPSLKSRISITRDTSKNQFFLQLLSVTTDDTATYYCARSVYNYDGAWFPYWGQGTLVTVSA
VL: QIVLTQSPVIMSASPGERVTLTCSASSSVSSSYLNWYQLKPGSSPKVWIYRTSNLASGVPARFSGSGSGTSYSLTISSMEAEDAASYFCHQWSAYPPTFGGGTKLEIKR
notes: as for B1
For the molecule B2, the binding result in assay [2] and in assay [3] was “binds” in each case.

B3: antibody 3.2C11 (antibody, V domains shown)
VH: QVQLQQSGAELVRPGASVKLSCKALGYTFTDYEIHWVKQTPVHGLEWIGGIHPGNGGTAYNPKFKGKATLTADTSSSTASMELSSLTSEDSAVYYCTDWVDYWGQGTTLTVSS
VL: DVVVTQTPLSLPVNFGDQVSISCRSSQSLVNRHGITYLSWYLHKPGQSPQLLIYEISNRFSGVPDRFSGSGSGTDFTLKISTIKPEDLGMYYCFQGTHQPFTFGGGTKLEIKR
notes: as for B1
Regarding B3, in assay [3], the binding result is reported as “binds”.

B4: antibody 3.1C7 (antibody)
heavy: EVQLQQSGTVLSRPGASVKMSCKASGYTMTSYWMHWIKQRPGQGLEWIGAIYPGKSDIKYNQKFKDKAKLTAVTATSTAYMEINSLTNEDSAVYYCTNSIPFVYWGQGTLITVSAASTKGPSVYPLAPVCGDTTGSSVTLGCLVKGYFPEPVTLTWNSGSLSSGVHTFPAVLQSDLYTLSSSVTVTSSTWPSQSITCNVAHPASSTKVDKKIEPRGPTIKPCPPCKCPAPNAAGGPSVFIFPPKIKDVLMISLSPIVTCVVVDVSEDDPDVQISWFVNNVEVHTAQTQTHREDYNSTLRVVSALPIQHQDWMSGKEFKCKVNNKDLGAPIERTISKPKGSVRAPQVYVLPPPEEEMTKKQVTLTCMVTDFMPEDIYVEWTNNGKTELNYKNTEPVLDSDGSYFMYSKLRVEKKNWVERNSYSCSVVHEGLHNHHTTKSFSRTPGK
light: DIVMTQSPSSLTVTAGEKVTMSCKSSQSLLNSENQKKYLTWFQQKPGQPPKLLIYWTSTRYSGIPDRFTGSGSGTVFTLTISSVQADDLAVYYCQNDYSYPLTFGGGTKLEIKRADAAPTVSIFPPSSEQLTSGGASVVCFLNNFYPKDINVKWKIDGSERQNGVLNSWTDQDSKDSTYSMSSTLTLTKDEYERHNSYTCEATHKTSTSPIVKSFNRNEC
notes: Mouse mAb, cloned as murine IgG2a LALAPG; also called SRA-ID antibody 3.1C7
Turning to B4, the binding result in assay [1] is listed as “binds”; with APOL6-myc-FLAG, “no binding (tested: 1 µg/ml)”. Moreover, in assay [4], the “IC50 of blocking of serum APOL1-mediated trypanolysis (Alamar Blue)” value is 1 nM.

B5: rabbit monoclonal antibody 5.17H8 (antibody, V domains shown)
VH: QSLEESGGRLVTPGTPLTLTCTVSGIDLSSYAMGWVRQAPGKGLEWIGIISSSGSTHYASWAKGRFTISKTSTTVDLKITSPTTEDTATYFCARARAGSTYYTGYYFNLWGQGTLVTVSS
VL: AIEMTQTASPVSAAVGGTVTINCQASESIYSNLAWYQQKPGQRPKLLIYGASTLESGVPSRFKGSGSGTEYTLTISDLECDDAATYYCQSGYYGISAINNAFGGGTEVVVKG
notes: Rabbit mAb (Method #5), recombinant; also called rabmab 5.17H8
B5: the binding result with APOL6-myc-FLAG is “no binding (tested: 1 µg/ml)”.
